Laboratory results published in patent US20210363269A1 (ALX ONCOLOGY, published 2021).
Where a chain is given by its changes, count along the chain named.

T1: C57BL/6 mouse SIRP-α D1 domain (mouse (C57BL/6 strain), UniProt P97797 32-148)
T1 sequence: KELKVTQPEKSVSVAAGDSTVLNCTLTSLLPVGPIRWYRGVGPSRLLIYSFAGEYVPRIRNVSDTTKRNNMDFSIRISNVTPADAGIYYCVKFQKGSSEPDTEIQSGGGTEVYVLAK

T2: mouse 129 SIRP-α D1 domain (mouse (129 strain), UniProt P97797 32-150)
T2 construct: also called m129
T2 chain: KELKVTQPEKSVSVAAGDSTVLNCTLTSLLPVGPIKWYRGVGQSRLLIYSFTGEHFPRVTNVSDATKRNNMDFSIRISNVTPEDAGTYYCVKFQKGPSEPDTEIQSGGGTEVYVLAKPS

T3: cynomolgus SIRP-α D1 domain (cyno2) (cynomolgus monkey, UniProt Q5TFQ8 30-148 (human entry), limits assumed)
T3 chain: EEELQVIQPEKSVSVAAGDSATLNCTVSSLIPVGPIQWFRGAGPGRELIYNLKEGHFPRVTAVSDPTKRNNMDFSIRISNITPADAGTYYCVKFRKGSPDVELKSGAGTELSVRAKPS

T4: high affinity SIRP-α D1 variant CV1-3
T4 chain: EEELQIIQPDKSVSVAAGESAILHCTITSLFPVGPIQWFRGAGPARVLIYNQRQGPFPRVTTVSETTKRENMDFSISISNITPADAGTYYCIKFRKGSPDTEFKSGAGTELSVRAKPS

T5: NOD mouse SIRP-α D1 domain (mouse (NOD strain))
T5 chain: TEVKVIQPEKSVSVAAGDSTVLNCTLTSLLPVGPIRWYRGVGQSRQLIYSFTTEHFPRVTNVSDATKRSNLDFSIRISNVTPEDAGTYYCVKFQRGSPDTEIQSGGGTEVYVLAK

T6: cynomolgus SIRP-α D1 domain (cyno1) (cynomolgus monkey, UniProt Q5TFQ8 30-148 (human entry), limits assumed)
T6 chain: T3 chain with D19E, V27A, S28T, A42V, N51H, L52Q, A62P

B1: antibody 16 (antibody, V domains shown)
VH: DVQLVESGGGVVRPGESLRLSCAVSGFRFSSYAMSWVRQAPGKGLEWVSGISSGGDTYYVDSVKGRFTISRDNSKNTLYLQVNSLTAEDTAIYYCARETWNHLFDYWGLGTLVTVSS
VL: ALTQPASVSANLGETVKITCSGGDSSSHYYGWYQQKSPGSAPVTVIYSDDERPSDIPSRFSGSASGSTATLTITGVRVEDEAIYYCGAYDGSTYANTFGAGTTLTVL
notes: also called S16
B2: antibody 202 (antibody, V domains shown)
VH: DVQLVESGGGVVRPGESLRLSCAASGFTFSSYAMSWVRQAPGKGLEWLAGISAGGSDTYYIDSVKGRFTISRDNSKNSLYLQMNSLTAEDTAVYYCARETWNHLFDYWGLGTLVTVSS
VL: ALTQPASVSANPGETVKITCSGGGYYSTYYGWYQQRSPGSAPVTVIHSDDKRPSDIPSRFSGSASGSAATLTITGVRVEDEAVYYCAGYDGRTYLNTFGAGTTLTVL
notes: also called S202
B3: antibody 175 (antibody, V domains shown)
VH: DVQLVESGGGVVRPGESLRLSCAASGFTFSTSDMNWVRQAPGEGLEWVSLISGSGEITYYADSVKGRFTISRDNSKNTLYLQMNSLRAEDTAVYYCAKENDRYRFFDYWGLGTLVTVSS
VL: ETVLTQSPGILSLSPGERATLTCRASQSVYTYLAWYQEKPGQAPRLLIYGASSRAAGIPDRFSGSGSGTEFTLTISSLQSEDFAVYYCQQYYDRPPLTFGGGTKVEIK
notes: also called S175
B4: antibody 189 (antibody, V domains shown)
VH: DVQLVESGGGVVRPGESLRLSCAASGFTFSSSDMNWVRQAPGEGLEWVSLISGSGEITYYADSVKGRFTISRDNSKNTLYLQMNSLRAEDTAIYYCAKENNMYRFFDYWGLGTLVTVSS
VL: B3 VL with I10T, T22S, E38Q, A43P, Y49H, G50A, S52R, S53N
notes: also called S189
B5: S3 (scFv, V domains shown)
VH: AVTLDESGGGLQTPGGALSLVCKASGFIFSDYGMNWVRQAPGKGLEFVAQITSGSRTYYGAAVKGRATISRDNRQSTVKLQLNNLRAEDTGIYFCARDFGSGVGSIDAWGNGTEVIVSS
VL: ALTQPASVSANLGGTVKITCSGSRGRYGWYQQRSPGSAPVTVIYRDNQRPSNIPSRFSSSTSGSTSTLTITGVQADDESVYFCGSYDGSIDIFGAGTTLTVL
notes: also called clone 3; scFv-Fc form of AB3
B6: antibody 3 (antibody, V domains shown)
VH: B5 VH
VL: B5 VL
notes: also called AB3; S3
B7: S201 (scFv, V domains shown)
VH: DVQLVESGGAVVRPGETLRLSCTASGFTFSSYAMSWVRQAPGKGLEWVSGISASGSDTYYADSVKGRSTISRDNSKNTLYLRMSSLTAEDTAVYYCARETWNHLFDYWGLGTLVTVSS
VL: ALTQPASVSANPGETVKITCSGGGTSSYYGWYQQKSPGSAPVTLIHSDDKRPSDIPSRFSGSASGSTATLTITGVQVEDEAVYYCGGYDYTTYVNTFGAGTTLTVL
B8: antibody 201 (antibody, V domains shown)
VH: B7 VH
VL: B7 VL
notes: also called S201
B9: S206 (scFv, V domains shown)
VH: B7 VH with V116L
VL: B7 VL with V77A
B10: antibody 218 (antibody, V domains shown)
VH: DVQLVESGGGVVRPGESLTLSCTASGFTFTSSTMNWVRQAPGEGLDWVSSISTSGVITYYADSVKGRATISRDNSKNTLYLRLFSLRADDTAIYYCATDTFDHWGPGTLVTVSS
VL: ALTQPASVSANPGETVKITCFGSSGNYGWFQQKSPGSAPVTVIHYNNKRPSDIPSRFSGSKSGSTGTLTITGVRAEDEAVYFCGAWETGSATFGAGTTLTVL
notes: also called AB218; S218
B11: S25 (scFv, V domains shown)
VH: DVQLVESGGGVVRPGESLRLSCEASGFTFSSNAMSWVRQAPGKGLEWVAGISSGSDTYYGDSVKGRLTISRDNSKNILYLQMNSLTAEDTAVYYCARETWNHLFDYWGLGTLVTVSS
VL: ALTQPASVSANPGETVEITCSGGSYSSYYYAWYQQKSPGSAPVTLIYSDDKRPSNIPSRFSGSASGSTATLTITGVRAEDEAVYFCGGYDQSSYTNPFGAGTTLTVL
notes: also called clone 25; scFv-Fc form of AB25
B12: S28 (scFv, V domains shown)
VH: B11 VH with E23A, T28S, S53A, G54S, S55G, G60S, D61G, V63M, L67F, I77T
VL: ALTQPASVSANPGETVKITCSGGSDSYYYGWHQQKSPGSAPVTVIYSDDQRPPDIPSRFSGSASGSTTTLTITGVRAEDEAVYYCGGYDYSTYTNTFGAGTTLTVL
notes: also called clone 28
B13: S73 (scFv, V domains shown)
VH: B11 VH with V37A
VL: B11 VL with E17K, S24I
notes: also called clone 73
B14: antibody 73 (antibody, V domains shown)
VH: B11 VH with V37A
VL: B11 VL with E17K, S24I
notes: also called S73

Key:
human SIRP-α v2 = target: T7, human SIRP-α v2 (human); experiment: SPR
T7 construct: also called Human v2; Human V2
Summary of the method: (§1)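 SIRP analytes at nominal, A280-based concentrations were injected in one-shot kinetic mode over purified antibodies that were amine-coupled to a GLC chip or captured by biotinylated Protein A on an NLC chip of a ProteOn XPR36. All runs were at 25° C in PBS pH 7.4 with 0.01% Tween-20. Apparent ka and kd came from a global simple Langmuir fit of double-referenced data, with KD as their ratio kd/ka.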

human SIRP-α v1 = target: T8, human SIRP-α v1 (human, UniProt P78324 31-149); experiment: SPR
T8 construct: also called Human v1; Human V1
Summary of the method: as §1

[1] = target: T1, C57BL/6 mouse SIRP-α D1 domain; experiment: SPR, Langmuir fit
Summary of the method: (§2)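 Dissociation rate constants (koff) were measured on a ProteOn XPR36 instrument by Langmuir model fitting. Antibody clones in scFv-Fc format were captured from pre-filtered culture media onto a GLC chip with about 4000 RU of amine-coupled anti-human IgG Fc. SIRP analytes ran in PBS pH 7.4 with 0.01% Tween-20 at 25° C, and the model used was 1:1, applied to data double-referenced against interspot and buffer-blank responses.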

[2] = target: T2, mouse 129 SIRP-α D1 domain; experiment: SPR, Langmuir fit
Summary of the method: as §2

human SIRPβ isoform 1 = target: T9, human SIRPβ isoform 1 (human, UniProt O00241 30-148); experiment: SPR, Langmuir fit
T9 construct: also called SIRPb; sirpb1
Summary of the method: as §2

[3] = target: T3, cynomolgus SIRP-α D1 domain (cyno2); experiment: SPR, Langmuir fit
Summary of the method: as §2

[4] = target: T4, high affinity SIRP-α D1 variant CV1-3; experiment: SPR, Langmuir fit
Summary of the method: as §2

[5] = target: T10, human SIRP-α v2 D1 domain (human); experiment: SPR, Langmuir fit
T10 construct: also called human v2
Summary of the method: as §2

[6] = target: T5, NOD mouse SIRP-α D1 domain; experiment: SPR, Langmuir fit
Summary of the method: as §2

human SIRPγ isoform 1 = target: T11, human SIRPγ isoform 1 (human, UniProt Q9P1W8 29-147); experiment: SPR, Langmuir fit
T11 construct: also called SIRPg; sirpg
Summary of the method: as §2

[7] = target: T6, cynomolgus SIRP-α D1 domain (cyno1); experiment: SPR, Langmuir fit
Summary of the method: as §2

[8] = target: T12, human SIRP-α v1 D1 domain (human, UniProt P78324 31-149); experiment: SPR, Langmuir fit
T12 construct: also called human v1
Summary of the method: as §2

T10 sequence (chain, as listed by the source limits assumed): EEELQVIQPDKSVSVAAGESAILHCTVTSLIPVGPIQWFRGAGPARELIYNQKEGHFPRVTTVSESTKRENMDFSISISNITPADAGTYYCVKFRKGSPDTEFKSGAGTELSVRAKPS
T9 sequence (O00241 30-148 limits assumed): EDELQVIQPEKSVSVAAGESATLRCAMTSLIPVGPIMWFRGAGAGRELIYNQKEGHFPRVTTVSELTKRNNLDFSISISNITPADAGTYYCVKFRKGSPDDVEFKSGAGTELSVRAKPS
T11 sequence (Q9P1W8 29-147 limits assumed): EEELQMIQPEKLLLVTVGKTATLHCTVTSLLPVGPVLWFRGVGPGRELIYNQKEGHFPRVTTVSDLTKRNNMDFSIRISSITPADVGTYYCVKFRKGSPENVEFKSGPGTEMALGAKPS
T8 sequence (P78324 31-149 limits assumed): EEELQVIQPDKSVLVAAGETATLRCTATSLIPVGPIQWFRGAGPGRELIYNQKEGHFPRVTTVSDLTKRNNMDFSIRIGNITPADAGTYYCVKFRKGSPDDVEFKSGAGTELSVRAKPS
T12 sequence (P78324 31-149 limits assumed): as above

Row | Binder | Kd (human SIRP-α v2) [nM] | Kd (human SIRP-α v1) [nM] | koff [1] [s⁻¹] | koff [2] [s⁻¹] | koff (human SIRPβ isoform 1) [s⁻¹] | koff [3] [s⁻¹] | koff [4] [s⁻¹] | koff [5] [s⁻¹] | koff [6] [s⁻¹] | koff (human SIRPγ isoform 1) [s⁻¹] | koff [7] [s⁻¹] | koff [8] [s⁻¹]
1 | B1 | < 0.001 | < 0.001 |  |  |  |  |  |  |  |  |  | 
2 | B2 | < 0.001 | < 0.001 |  |  |  |  |  |  |  |  |  | 
3 | B3 | 0.662 | 0.137 |  |  |  |  |  |  |  |  |  | 
4 | B4 | 1.9 | 0.31 |  |  |  |  |  |  |  |  |  | 
5 | B5 |  |  | 0.00197 | 0.000655 | 0.00192 | 0.00174 | 0.000394 | 0.000276 | 0.00119 | 0.000162 | 0.00218 | 0.00041
6 | B6 | 0.0767 | 0.162 |  |  |  |  |  |  |  |  |  | 
7 | B7 |  |  | 0.00111 | 0.000818 | 0.0041 | 0.000522 | 8.32e-05 | 4.27e-05 | 0.00215 | 0.000185 | 0.000636 | 3.46e-05
8 | B8 | 0.00487 | < 0.001 |  |  |  |  |  |  |  |  |  | 
9 | B9 |  |  | 0.00157 | 0.000901 | 0.00437 | 0.000518 | 8.22e-05 | 3.6e-05 | 0.00223 | 0.000192 | 0.000624 | 3.5e-05
10 | B10 | 0.276 | 0.123 |  |  |  |  |  |  |  |  |  | 
11 | B11 |  |  | 0.00029 | 0.000133 | 0.000171 | 0.000212 | 0.00014 | 0.000209 | 0.000779 | 0.000141 | 0.000219 | 0.000112
12 | B12 |  |  | 0.00186 | 0.000306 | 6.29e-05 | 0.000132 | 6.59e-05 | 1.47e-05 | 0.000616 | 3.27e-05 | 0.000115 | 2.11e-05
13 | B13 |  |  | 0.000373 | 0.000164 | 0.000108 | 0.000119 | 5.28e-05 | 7.49e-05 | 0.00148 | 7.3e-05 | 0.000127 | 1.9e-05
14 | B14 | < 0.001 | < 0.001 |  |  |  |  |  |  |  |  |  | 
